What is called Kd is the constant that tells how readily two partners part at equilibrium. Read a low Kd as tighter binding. In general, koff refers to the first-order rate constant of dissociation. A high value points to fast dissociation. In general, kon refers to a measure of how fast the partners come together. A low value points to slow association.

Assay in all cases: BLI
For experiment [1], the target named is CAP256-VRC26.10 Fab (human).
The target of experiment [2] is CAP256-VRC26.01 Fab (human).
Experiment [3] addresses CAP256-VRC26.03 Fab (human).

For the substance “BG505.SOSIP.664 soluble HIV-1 Env trimer (from UniProt Q2N0S6 1-860) (complex)”, the Kd stood at 84 nM in experiment [1], 680 nM in experiment [2] and 64 nM in experiment [3]. Besides, the koff came out at 0.0045 s⁻¹ in experiment [1], 0.0071 s⁻¹ in experiment [2] and 0.0041 s⁻¹ in experiment [3]. In addition, the kon in experiment [1] came out at 54000 M⁻¹ s⁻¹; in experiment [3] it was 63000 M⁻¹ s⁻¹.

The record behind these values is article PMC5250619.
